Source: the supplement of paper PMC10567573

B1: CCND2 (parent)
chain: YFKCVQKDIQPYMRRMVATWMLEV
B2: STX5 (parent)
chain: ESTIVELGSIFQQLAHMVKEQEET

Variants of: B1
Assay: protein stability index of a GFP-peptide fusion (GPS, HEK-293T) (PSI 1-6); higher = more stable
Settings: c terminus: a fixed tail appended
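Also: lentivirally expressed fusions sorted by FACS into six bins by GFP to DsRed ratio, PSI derived from sequencing read proportions per bin multiplied by bin number.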

Protein stability index of substitutions, site by site:
M21: N 2.54; P 2.24; Q 1.76; R 1.86; S 3.49; V 2.55; W 4.25
L22: A 3.01; C 2.25; D 1.89; E 1.74; F 4.78; G 2.07; H 1.59; I 2.61; K 2.34; N 1.65; P 1.63; Q 1.96; R 1.96; S 2.72; T 3; V 2.94; W 2.6; Y 2
E23: A 1.78; C 2.61; D 2.08; F 2.5; G 3.51; H 2.28; I 3.03; K 2.31; L 3.11; M 2.9; N 2.39; P 3.09; Q 2.13; R 2.96; S 3.08; T 2.88; V 2.73; W 3.1; Y 3.34
V24: A 2.41; C 1.93; D 1.56; E 2.42; F 3.08; G 2.9; H 1.94; I 3.24; K 1.63; L 2.68; M 2.09; P 1.91; Q 2.5; R 2.65; S 2.97; T 1.9; W 1.91; Y 2.06

Variants of: B2
Assay: as above
Settings: c terminus: a fixed tail appended

Protein stability index, by site and new letter:
E1: A 2.13; C 2.31; D 2.77; F 2.08; G 2.69; H 1.27; I 3.04; K 1.87; L 2.6; M 2.45; N 2.22; P 2.71; Q 1.68; R 2.27; S 1.9; T 2.26; V 1.79; W 1.61; Y 2.49
S2: A 1.39; C 3.01; D 2.47; E 2.62; F 2.93; G 1.78; H 1.92; I 1.86; K 2.24; L 2.28; M 1; N 1.97; P 1.7; Q 1.97; R 1.25; T 2.05; V 3.07; W 2.19; Y 1.7
T3: A 2.96; C 2.02; D 2.04; E 1.43; F 1.3; H 2.4; I 2.94; K 2.83; L 1.85; M 1.44; N 2.31; P 3.03; Q 3.88; R 3.19; S 2.72; V 2.56; W 1.24; Y 2.05
I4: A 2.27; C 2.83; D 2.78; E 2.8; F 2.29; G 2.42; H 3.14; K 2.55; L 1.81; M 1.57; N 3.05; P 2.93; Q 3.69; R 3; S 2.64; T 2.73; V 3.59; W 2.54; Y 1.91
V5: A 2.28; C 2.58; D 3; E 2.12; F 1.83; G 2.79; H 1.71; I 2.55; K 3.1; L 2.04; M 2.56; N 2.04; P 3.5; Q 2.07; R 2.88; S 2.46; T 1.99; W 2.22; Y 2.28
E6: A 1.65; C 2.06; D 1.63; F 2.19; G 2.75; H 2.33; I 3.1; K 2.54; L 2.34; M 1.95; N 3.14
